Measurements: the supplement of paper PMC11316812
± gives the standard deviation of the averaged measurements.

Columns and labels:
[1] = test system: MCF7; assay: percentage of EdU-negative (G0-arrested) nuclei per well, 72 h; higher = more G0 arrest; settings: reference: sequence is the full UniProt precursor, the tested protein was the secreted form or ectodomain
[2] = test system: hTERT-HMEC; assay: as above; settings: reference: sequence is the full UniProt precursor, the tested protein was the secreted form or ectodomain
[3] = protein concentration 0.0175 µM
[4] = protein concentration 0.0225 µM
[5] = protein concentration 0.0171429 µM
[6] = protein concentration 0.171429 µM
[7] = protein concentration 0.02075 µM
[8] = protein concentration 0.2075 µM
[9] = protein concentration 0.02175 µM
[10] = protein concentration 0.2175 µM
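Also: secreted proteins added to cultured cells, EdU pulse at the end, nuclei found by Hoechst imaging, EdU status from nuclear versus surrounding ring intensity ratio, PBS as neutral control.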

In the case of “MTRGGPGGRPGLPQPPPLLLLLLLLPLLLVTAEPPKPAGVYYATAYWMPAEKTVQVKNVMDKNGDAYGFYNNSVKTTGWGILEIRAGYGSQTLSNEIIMFVAGFLEGYLTAPHMNDHYTNLYPQLITKPSIMDKVQDFMEKQDKWTRKNIKEYKTDSFWRHTGYVMAQIDGLYVGAKKRAILEGTKPMTLFQIQFLNSVGDLLDLIPSLSPTKNGSLKVFKRWDMGHCSALIKVLPGFENILFAHSSWYTYAAMLRIYKHWDFNVIDKDTSSSRLSFSSYPGFLESLDDFYILSSGLILLQTTNSVFNKTLLKQVIPETLLSWQRVRVANMMADSGKRWADIFSKYNSGTYNNQYMVLDLKKVKLNHSLDKGTLYIVEQIPTYVEYSEQTDVLRKGYWPSYNVPFHEKIYNWSGYPLLVQKLGLDYSYDLAPRAKIFRRDQGKVTDTASMKYIMRYNNYKKDPYSRGDPCNTICCREDLNSPNPSPGGCYDTKVADIYLASQYTSYAISGPTVQGGLPVFRWDRFNKTLHQGMPEVYNFDFITMKPILKLDIK [Q6P4A8]”, the “percentage of EdU-negative” value [1, 3] is reported as 25.6 ± 2.5%, the “percentage of EdU-negative” value ([1]; protein concentration 0.175 µM) is reported as 27.7 ± 0.8% and the “percentage of EdU-negative” value [2, 3] is reported as 4.42 ± 0.062%. For the same sequence, the “percentage of EdU-negative” value ([2]; protein concentration 0.175 µM) was 19.7 ± 1.7%.

For “MTRTYENFQYLENKVKVQGFKNGPLPLQSLLQRLCSGPCHLLLSLGLGLLLLVIICVVGFQNSKFQRDLVTLRTDFSNFTSNTVAEIQALTSQGSSLEETIASLKAEVEGFKQERQAGVSELQEHTTQKAHLGHCPHCPSVCVPVHSEMLLRVQQLVQDLKKLTCQVATLNNNASTEGTCCPVNWVEHQDSCYWFSHSGMSWAEAEKYCQLKNAHLVVINSREEQNFVQKYLGSAYTWMGLSDPEGAWKWVDGTDYATGFQNWKPGQPDDWQGHGLGGGEDCAHFHPDGRWNDDVCQRPYHWVCEAGLGQTSQESH [Q8IUN9]”, the “percentage of EdU-negative” value [1, 4] was 24.9 ± 1%, the “percentage of EdU-negative” value ([1]; protein concentration 0.225 µM) was 26.5 ± 0.74% and the “percentage of EdU-negative” value [2, 4] was 5.25 ± 0.3%. For the same sequence, the “percentage of EdU-negative” value ([2]; protein concentration 0.225 µM) was 4.954 ± 0.011%.

In the case of “MTSHYVIAIFALMSSCLATAGPEPGALCELSPVSASHPVQALMESFTVLSGCASRGTTGLPQEVHVLNLRTAGQGPGQLQREVTLHLNPISSVHIHHKSVVFLLNSPHPLVWHLKTERLATGVSRLFLVSEGSVVQFSSANFSLTAETEERNFPHGNEHLLNWARKEYGAVTSFTELKIARNIYIKVGEDQVFPPKCNIGKNFLSLNYLAEYLQPKAAEGCVMSSQPQNEEVHIIELITPNSNPYSAFQVDITIDIRPSQEDLEVVKNLILILKCKKSVNWVIKSFDVKGSLKIIAPNSIGFGKESERSMTMTKSIRDDIPSTQGNLVKWALDNGYSPITSYTMAPVANRFHLRLENNAEEMGDEEVHTIPPELRILLDPGALPALQNPPIRGGEGQNGGLPFPFPDISRRVWNEEGEDGLPRPKDPVIPSIQLFPGLREPEEVQGSVDIALSVKCDNEKMIVAVEKDSFQASGYSGMDVTLLDPTCKAKMNGTHFVLESPLNGCGTRPRWSALDGVVYYNSIVIQVPALGDSSGWPDGYEDLESGDNGFPGDMDEGDASLFTRPEIVVFNCSLQQVRNPSSFQEQPHGNITFNMELYNTDLFLVPSQGVFSVPENGHVYVEVSVTKAEQELGFAIQTCFISPYSNPDRMSHYTIIENICPKDESVKFYSPKRVHFPIPQADMDKKRFSFVFKPVFNTSLLFLQCELTLCTKMEKHPQKLPKCVPPDEACTSLDASIIWAMMQNKKTFTKPLAVIHHEAESKEKGPSMKEPNPISPPIFHGLDTLTVMGIAFAAFVIGALLTGALWYIYSHTGETAGRQQVPTSPPASENSSAAHSIGSTQSTPCSSSSTA”, the “percentage of EdU-negative” value [1, 5] is reported as 24.6 ± 1.9%, the “percentage of EdU-negative” value [1, 6] is reported as 23.7 ± 2.4% and the “percentage of EdU-negative” value [2, 5] is reported as 4.94 ± 0.63%. The “percentage of EdU-negative” value [2, 6] was 5.484 ± 0.021%.

With “MTSKPHSDWIPYSVLDDEGRNLRQQKLDRQRALLEQKQKKKRQEPLMVQANADGRPRSRRARQSEEQAPLVESYLSSSGSTSYQVQEADSLASVQLGATRPTAPASAKRTKAAATAGGQGGAARKEKKGKHKGTSGPAALAEDKSEAQGPVQILTVGQSDHAQDAGETAAGGGERPSGQDLRATMQRKGISSSMSFDEDEEDEEENSSSSSQLNSNTRPSSATSRKSVREAASAPSPTAPEQPVDVEVQDLEEFALRPAPQGITIKCRITRDKKGMDRGMYPTYFLHLDREDGKKVFLLAGRKRKKSKTSNYLISVDPTDLSRGGDSYIGKLRSNLMGTKFTVYDNGVNPQKASSSTLESGTLRQELAAVCYETNVLGFKGPRKMSVIVPGMNMVHERVSIRPRNEHETLLARWQNKNTESIIELQNKTPVWNDDTQSYVLNFHGRVTQASVKNFQIIHGNDPDYIVMQFGRVAEDVFTMDYNYPLCALQAFAIALSSFDSKLACE” the “percentage of EdU-negative” value [1, 7] was 24.8 ± 1.5%, the “percentage of EdU-negative” value [1, 8] was 29.6 ± 0.96% and the “percentage of EdU-negative” value [2, 7] was 4.99 ± 0.76%. The “percentage of EdU-negative” value [2, 8] was 7.63 ± 0.81%.

“MTSSGPGPRFLLLLPLLLPPAASASDRPRGRDPVNPEKLLVITVATAETEGYLRFLRSAEFFNYTVRTLGLGEEWRGGDVARTVGGGQKVRWLKKEMEKYADREDMIIMFVDSYDVILAGSPTELLKKFVQSGSRLLFSAESFCWPEWGLAEQYPEVGTGKRFLNSGGFIGFATTIHQIVRQWKYKDDDDDQLFYTRLYLDPGLREKLSLNLDHKSRIFQNLNGALDEVVLKFDRNRVRIRNVAYDTLPIVVHGNGPTKLQLNYLGNYVPNGWTPEGGCGFCNQDRRTLPGGQPPPRVFLAVFVEQPTPFLPRFLQRLLLLDYPPDRVTLFLHNNEVFHEPHIADSWPQLQDHFSAVKLVGPEEALSPGEARDMAMDLCRQDPECEFYFSLDADAVLTNLQTLRILIEENRKVIAPMLSRHGKLWSNFWGALSPDEYYARSEDYVELVQRKRVGVWNVPYISQAYVIRGDTLRMELPQRDVFSGSDTDPDMAFCKSFRDKGIFLHLSNQHEFGRLLATSRYDTEHLHPDLWQIFDNPVDWKEQYIHENYSRALEGEGIVEQPCPDVYWFPLLSEQMCDELVAEMEHYGQWSGGRHEDSRLAGGYENVPTVDIHMKQVGYEDQWLQLLRTYVGPMTESLFPGYHTKARAVMNFVVRYRPDEQPSLRPHHDSSTFTLNVALNHKGLDYEGGGCRFLRYDCVISSPRKGWALLHPGRLTHYHEGLPTTWGTRYIMVSFVDP” was tested, and the “percentage of EdU-negative” value [1, 9] was 25.1 ± 1%, the “percentage of EdU-negative” value [1, 10] was 28.2 ± 1.3% and the “percentage of EdU-negative” value [2, 9] was 5.45 ± 1.1%. The “percentage of EdU-negative” value [2, 10] was 8.17 ± 1.2%.
